Source: PMC6020246, “Molecular characterization of a novel chitinase CmChi1 from Chitinolyticbacter meiyuanensis SYBC-H1 and its use in N-acetyl-D-glucosamine production” (Biotechnology for Biofuels, 2018)

System: T1, CC(=O)N[C@H]1[C@H](Oc2ccc([N+](=O)[O-])cc2)O[C@H](CO)[C@@H](O[C@@H]2O[C@H](CO)[C@@H](O)[C@H](O)[C@H]2NC(C)=O)[C@@H]1O
T1 construct: full length 658 residues with predicted signal peptide (residue 23) kept, C-terminal His6 (pET-28a(+)), E. coli BL21(DE3); peptides AATPTPVSAT, EDYKVLKNA, LTFINYAFGNVYQK
Assay: p-nitrophenol release, Lineweaver-Burk plot
Format: biochemical, Chitinolyticbacter meiyuanensis
Details: 50 mM sodium citrate pH 5.2, 50 °C, 5 min, apparent, text b64 prints the same number as mg/mL, table unit agrees with printed kcat/Km 73.5 mL/s/μmol
From the text: p-nitrophenol release, Lineweaver-Burk plot on CmChi1

Sequence of CmChi1 (Chitinolyticbacter meiyuanensis) (chain, as listed by the source): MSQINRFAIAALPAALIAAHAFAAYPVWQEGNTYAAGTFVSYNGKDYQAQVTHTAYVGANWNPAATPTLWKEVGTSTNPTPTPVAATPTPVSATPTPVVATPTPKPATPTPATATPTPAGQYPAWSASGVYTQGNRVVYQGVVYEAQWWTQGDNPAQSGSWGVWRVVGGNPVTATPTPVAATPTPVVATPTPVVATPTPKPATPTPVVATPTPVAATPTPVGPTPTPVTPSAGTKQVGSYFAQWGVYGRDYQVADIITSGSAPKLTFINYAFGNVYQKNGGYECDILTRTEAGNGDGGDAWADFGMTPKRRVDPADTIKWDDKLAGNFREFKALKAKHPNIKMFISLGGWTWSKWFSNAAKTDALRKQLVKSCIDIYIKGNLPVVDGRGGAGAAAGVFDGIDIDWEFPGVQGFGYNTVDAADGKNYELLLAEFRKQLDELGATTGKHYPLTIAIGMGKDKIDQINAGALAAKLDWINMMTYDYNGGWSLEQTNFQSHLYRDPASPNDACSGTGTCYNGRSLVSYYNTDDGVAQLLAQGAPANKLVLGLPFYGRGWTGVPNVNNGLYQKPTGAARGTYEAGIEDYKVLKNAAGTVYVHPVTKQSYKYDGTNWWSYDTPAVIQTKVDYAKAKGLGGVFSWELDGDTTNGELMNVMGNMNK

Q: “CmChi1 (Chitinolyticbacter meiyuanensis)” was tested. Which Km did it give?
A: Its Km is 580 ± 40 µM.

Q: What about the Vmax of the same substance?
A: The Vmax was 108.6 ± 3.3 (μmol/min/L).

Q: And the kcat?
A: Its kcat is 42.5 ± 1.4 s⁻¹.

Q: What about the kcat/Km of the same substance?
A: The kcat/Km was 73.5 ± 2.6 (mL/s/μmol).
